Measured values: the supplement of paper PMC9233669
This sample holds only a part of the variants without activity.

How the values were obtained:
biotinyl-Trp-oxazolone = experiment: self-aminoacylation, catalytic enhancement (BWO) (fold over background); higher = more active; k-Seq, kA / k0A0; sequences stand for … in GGGAAUGGAUCCACAUCUACGAAUUC…UUCACUGCAGACUUGACGAAGCUG
Procedure, shortened: (§1)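 Mutagenized RNA pools with a 21-nt variable region (0.43 μM) reacted with each biotinyl-aminoacyl-oxazolone at 2–1250 μM. Reactions ran in 50 μL HEPES/NaCl/KCl/MgCl2/CaCl2 buffer with 5% acetonitrile, pH 6.9–7.0, for 90 minutes at room temperature. Streptavidin-captured RNA was quantified by triplicate qPCR and Illumina sequencing, and per-sequence fraction reacted was fit to a pseudo-first-order model with 1000 bootstraps. Catalytic enhancement is median kA divided by the uncatalyzed rate, the low-activity peak of a bimodal Gaussian fit.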

biotinyl-Val-oxazolone = experiment: self-aminoacylation, catalytic enhancement (BVO) (fold over background); higher = more active; k-Seq, kA / k0A0; sequences stand for … in GGGAAUGGAUCCACAUCUACGAAUUC…UUCACUGCAGACUUGACGAAGCUG
Procedure, shortened: as §1

biotinyl-Met-oxazolone = experiment: self-aminoacylation, catalytic enhancement (BMO) (fold over background); higher = more active; k-Seq, kA / k0A0; sequences stand for … in GGGAAUGGAUCCACAUCUACGAAUUC…UUCACUGCAGACUUGACGAAGCUG
Procedure, shortened: as §1

biotinyl-Ile-oxazolone = experiment: self-aminoacylation, catalytic enhancement (BIO) (fold over background); higher = more active; k-Seq, kA / k0A0; sequences stand for … in GGGAAUGGAUCCACAUCUACGAAUUC…UUCACUGCAGACUUGACGAAGCUG
Procedure, shortened: as §1

biotinyl-Phe-oxazolone = experiment: self-aminoacylation, catalytic enhancement (BFO) (fold over background); higher = more active; k-Seq, kA / k0A0; sequences stand for … in GGGAAUGGAUCCACAUCUACGAAUUC…UUCACUGCAGACUUGACGAAGCUG
Procedure, shortened: as §1

biotinyl-Leu-oxazolone = experiment: self-aminoacylation, catalytic enhancement (BLO) (fold over background); higher = more active; k-Seq, kA / k0A0; sequences stand for … in GGGAAUGGAUCCACAUCUACGAAUUC…UUCACUGCAGACUUGACGAAGCUG
Procedure, shortened: as §1

| Sequence | self-aminoacylation (biotinyl-Trp-oxazolone) | self-aminoacylation (biotinyl-Val-oxazolone) | self-aminoacylation (biotinyl-Met-oxazolone) | self-aminoacylation (biotinyl-Ile-oxazolone) | self-aminoacylation (biotinyl-Phe-oxazolone) | self-aminoacylation (biotinyl-Leu-oxazolone) |
| --- | --- | --- | --- | --- | --- | --- |
| ACUACCCUGGUCAUCCAGUGA [Fam2.1 aminoacylation ribozyme variant] | 5.86 | 3.27 | 5.05 | 3.37 | 21.2 | 5.01 |
| ACUACCCUGGUCAUCGACUGA [Fam2.1 aminoacylation ribozyme variant] | 0.51 | 0.854 | 1.09 | 0.918 | 3.44 | 0.769 |
| ACUACCCUGGUCAUCGAGUUA [Fam2.1 aminoacylation ribozyme variant] | 3.55 | 2.38 | 5.07 | 2.05 | 8.46 | 5.11 |
| ACUACCCUGGUCUUCGAGUGA [Fam2.1 aminoacylation ribozyme variant] | 5.15 | 2.72 | 4.26 | 2.45 | 11.5 | 4.54 |
| ACUAGCCUGGUCAUCGAGUGA [Fam2.1 aminoacylation ribozyme variant] | 5.21 | 3.68 | 4.28 | 3.66 | 30.2 | 4.72 |
| ACUCACAUAGGUCAUCGGGUG [Fam2.2 aminoacylation ribozyme variant] | 10.2 | 6.65 | 9.37 | 6.79 | 69.5 | 10.6 |
| ACUCACCAAGGUCAUCGGGUG [Fam2.2 aminoacylation ribozyme variant] | 6.28 | 4.52 | 5.24 | 4.43 | 46.4 | 7.13 |
| ACUCACCUAGGCCAUCGGGUG [Fam2.2 aminoacylation ribozyme variant] | 5.91 | 6.46 | 4.87 | 4.74 | 34.2 | 5.87 |
| ACUCACCUAGGUCAUGGGGUG [Fam2.2 aminoacylation ribozyme variant] | 4.43 | 4 | 3.95 | 3.61 | 24.8 | 4.65 |
| ACUCACCUCGGUCAUCGGGUG [Fam2.2 aminoacylation ribozyme variant] | 6.06 | 4.77 | 4.36 | 4.08 | 34.4 | 5.87 |
| ACUCACCUGGGUCAUCGGGUG [Fam2.2 aminoacylation ribozyme variant] | 8.05 | 4.66 | 4.83 | 4.86 | 38.9 | 5.61 |
| ACUGCCCUGGUCAUCGAGUGA [Fam2.1 aminoacylation ribozyme variant] | 37.1 | 14.9 | 36 | 13.4 | 269 | 34.1 |
| AGACACUUCAAGCAAUCGGUC [Fam1B.1 aminoacylation ribozyme variant] | 16 | 2.64 | 2.62 | 2.8 | 19 | 3.25 |
| AGACUUCAAACAAUCGGUCUG [Fam1A.1 aminoacylation ribozyme variant] | 48.1 | 1.93 | 2.4 | 2.06 | 125 | 3.5 |
| AGCUUUGCUAAUAGUCGCAAG [Fam3.1 aminoacylation ribozyme variant] | 3.68 | 2.4 | 3.31 | 2.95 | 9.09 | 3.02 |
| AGGCACCUAGGUCAUCGGGUG [Fam2.2 aminoacylation ribozyme variant] | 4.1 | 3.73 | 3.14 | 2.94 | 17 | 3.18 |
| AGGUUAGCUAAUAGUCGCAAG [Fam3.1 aminoacylation ribozyme variant] | 3.06 | 1.77 | 1.46 | 1.97 | 2.66 | 2.16 |
| AGGUUUACUAAUAGUCGCAAG [Fam3.1 aminoacylation ribozyme variant] | 1.81 | 1.47 | 1.84 | 1.58 | 4.12 | 1.49 |
| AGGUUUCCUAAUAGUCGCAAG [Fam3.1 aminoacylation ribozyme variant] | 1.54 | 1.44 | 1.6 | 1.65 | 2.49 | 1.61 |
| AGGUUUGCUAAGAGUCGCAAG [Fam3.1 aminoacylation ribozyme variant] | 1.54 | 1.02 | 1.15 | 1.12 | 3.17 | 1.02 |
| AGGUUUGCUAAUAGUCGCAAA [Fam3.1 aminoacylation ribozyme variant] | 1.92 | 2.2 | 2.11 | 2.52 | 3.21 | 2.42 |
| AGGUUUGCUAAUAGUCGCAAC [Fam3.1 aminoacylation ribozyme variant] | 1.43 | 1.05 | 1.15 | 1.26 | 1.52 | 1.13 |

| Sequence | self-aminoacylation (biotinyl-Trp-oxazolone) | self-aminoacylation (biotinyl-Val-oxazolone) | self-aminoacylation (biotinyl-Met-oxazolone) | self-aminoacylation (biotinyl-Ile-oxazolone) | self-aminoacylation (biotinyl-Phe-oxazolone) | self-aminoacylation (biotinyl-Leu-oxazolone) |
| --- | --- | --- | --- | --- | --- | --- |
| AGGUUUGCUACUAGUCGCAAG [Fam3.1 aminoacylation ribozyme variant] | 1.77 | 1.69 | 1.55 | 1.35 | 2.49 | 1.84 |
| AGGUUUGCUAGUAGUCGCAAG [Fam3.1 aminoacylation ribozyme variant] | 0.88 | 0.894 | 0.787 | 0.918 | 1.49 | 0.945 |
| AGUACCCUCGUCAUCGAGUGA [Fam2.1 aminoacylation ribozyme variant] | 3.06 | 2.08 | 3.19 | 2.37 | 18.8 | 3.97 |
| AGUACCCUGGUCAGCGAGUGA [Fam2.1 aminoacylation ribozyme variant] | 7.2 | 3.45 | 4.42 | 3.51 | 36.4 | 6.63 |
| AGUACCCUGGUCAUCGACUGA [Fam2.1 aminoacylation ribozyme variant] | 1.01 | 1.07 | 1.1 | 1.34 | 0.572 | 0.974 |
| AGUACCCUGGUCAUCGAGGGA [Fam2.1 aminoacylation ribozyme variant] | 2.91 | 1.47 | 1.22 | 1.43 | 1.82 | 2.21 |
| AGUACCCUGGUCAUCGCGUGA [Fam2.1 aminoacylation ribozyme variant] | 20.5 | 12.2 | 19.4 | 8.36 | 128 | 20.3 |
| AGUACCCUGGUCAUGGAGUGA [Fam2.1 aminoacylation ribozyme variant] | 2.82 | 2.27 | 2.7 | 2.31 | 11 | 3.1 |
| AGUACCCUGGUCAUUGAGUGA [Fam2.1 aminoacylation ribozyme variant] | 9.07 | 3.39 | 6.37 | 3.86 | 37.2 | 7.4 |
| AGUACCCUGGUGAUCGAGUGA [Fam2.1 aminoacylation ribozyme variant] | 5.32 | 2.92 | 5.62 | 2.76 | 30.2 | 5.58 |
| AGUACCCUGUUCAUCGAGUGA [Fam2.1 aminoacylation ribozyme variant] | 4.52 | 2.45 | 4.14 | 2.36 | 17.4 | 4.46 |
| AGUACGCUGGUCAUCGAGUGA [Fam2.1 aminoacylation ribozyme variant] | 5.19 | 3.21 | 2.82 | 3.17 | 14.4 | 4.19 |
| AGUACUCUGGUCAUCGAGUGA [Fam2.1 aminoacylation ribozyme variant] | 3.97 | 3.01 | 4.15 | 3.14 | 11.4 | 3.94 |
| AGUAUCCUGGUCAUCGAGUGA [Fam2.1 aminoacylation ribozyme variant] | 8.53 | 4 | 6.72 | 4.12 | 20.7 | 7.39 |
| AGUCACAUAGGUCAUCGGGUG [Fam2.2 aminoacylation ribozyme variant] | 9.51 | 6.38 | 8.54 | 7.04 | 63.6 | 10.2 |
| AGUCACCAAGGUCAUCGGGUG [Fam2.2 aminoacylation ribozyme variant] | 7.87 | 4.7 | 6.59 | 4.38 | 51.2 | 7.67 |
| AGUCACCUAGGUCAUAGGGUG [Fam2.2 aminoacylation ribozyme variant] | 2.56 | 2.17 | 3.12 | 2.18 | 9.22 | 2.56 |
| AGUCACCUAGGUCAUCGAGUG [Fam2.2 aminoacylation ribozyme variant] | 4.19 | 3.16 | 4.24 | 3.67 | 6.67 | 5.93 |
| AGUCACCUAGGUCAUCGGGUC [Fam2.2 aminoacylation ribozyme variant] | 1.69 | 1.7 | 2.13 | 1.46 | 4.41 | 1.82 |
| AGUCACCUAGGUCAUCGGGUG [Fam2.2 aminoacylation ribozyme variant] | 7.24 | 4.99 | 6.24 | 4.81 | 38.1 | 6.74 |
| AGUCACCUAGGUCAUGGGGUG [Fam2.2 aminoacylation ribozyme variant] | 5.76 | 4.11 | 5.58 | 3.57 | 29.2 | 5.97 |
